Experimental data taken from patent CN111732655A (INST MILITARY MEDICINE ACADEMY MILITARY SCIENCES PLA, dated 2020).
Where “and” joins values, the source holds several entries; their conditions need not be identical. Identical values can stand only once.

How the values were obtained:
[1] = target: 全长SARS-CoV-2 S蛋白 (GenBank ID: QHD43416.1)，展示于HIV假病毒 (SARS-CoV-2, UniProt P0DTC2 14-1273); test: cell-based or functional assay
SARS-CoV-2真病毒的S蛋白 = SARS-CoV-2真病毒的S蛋白 (SARS-CoV-2, UniProt P0DTC2 14-1273); test: cell-based or functional assay

B1: 单克隆抗体4B7 (抗SARS-CoV-2全人源单克隆抗体) (antibody, V domains shown)
VH: EVQLVESGGGLVQPGGSLRLSCAASGFPFSSYAMSWVRQAPGKGLEWVSAITGSGGSTYYADSVKGRFTISRDNSKNTLYLHMNSLRAEDTAVYYCAKDDYGDYVLGAFDIWGQGTTVTVSS
VL: QSALTQPASVSGSPGQSITISCTGTSSDVGTYKFVSWYQQHPGKAPKLMIYEGSKRPSGVSNRFSGSKSGNTASLTISGLQAEDEADYYCCSYAGSSTLVFGGGTKLTVL
For B1, the “假病毒模型上EC50 (luciferase, ACE2-293T细胞)” value [1] was 0.052 ug/ml and 0.35 nM and the “病毒感染的细胞模型上EC50 (Vero E6细胞, 结晶紫染色细胞活率)” value (SARS-CoV-2真病毒的S蛋白) was 0.38 ug/ml and 2.5 nM.
